{"source": "paper PMC5447021", "about": "“TNF Lectin-Like Domain Restores Epithelial Sodium Channel Function in Frameshift Mutants Associated with Pseudohypoaldosteronism Type 1B” (Frontiers in Immunology, 2017)", "key": {"αβγ-hENaC": {"biological_target": "T1, αβγ-hENaC (Homo sapiens, UniProt P37088+P51168+P51170)", "T1 construct": "expressed in transfected cells; host or cells: HEK-293", "T1 sequence (P37088 1-669)": "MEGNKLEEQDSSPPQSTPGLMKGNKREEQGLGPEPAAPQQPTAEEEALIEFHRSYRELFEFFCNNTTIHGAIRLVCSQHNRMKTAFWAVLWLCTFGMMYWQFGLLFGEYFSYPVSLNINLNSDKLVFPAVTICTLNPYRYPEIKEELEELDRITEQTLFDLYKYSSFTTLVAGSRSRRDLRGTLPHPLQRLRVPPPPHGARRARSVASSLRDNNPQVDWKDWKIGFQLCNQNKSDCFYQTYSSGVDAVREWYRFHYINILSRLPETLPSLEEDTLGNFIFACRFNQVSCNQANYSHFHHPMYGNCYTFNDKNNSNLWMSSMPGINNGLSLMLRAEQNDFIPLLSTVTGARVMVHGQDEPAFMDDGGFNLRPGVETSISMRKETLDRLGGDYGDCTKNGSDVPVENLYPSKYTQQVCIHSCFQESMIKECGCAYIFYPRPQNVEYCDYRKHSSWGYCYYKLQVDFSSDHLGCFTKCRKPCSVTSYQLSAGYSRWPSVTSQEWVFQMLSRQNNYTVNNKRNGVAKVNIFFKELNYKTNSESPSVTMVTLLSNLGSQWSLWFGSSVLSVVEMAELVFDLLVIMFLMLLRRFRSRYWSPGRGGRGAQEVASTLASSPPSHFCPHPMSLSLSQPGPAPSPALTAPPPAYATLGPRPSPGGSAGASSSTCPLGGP", "T1 sequence (P51168 1-640 partner)": "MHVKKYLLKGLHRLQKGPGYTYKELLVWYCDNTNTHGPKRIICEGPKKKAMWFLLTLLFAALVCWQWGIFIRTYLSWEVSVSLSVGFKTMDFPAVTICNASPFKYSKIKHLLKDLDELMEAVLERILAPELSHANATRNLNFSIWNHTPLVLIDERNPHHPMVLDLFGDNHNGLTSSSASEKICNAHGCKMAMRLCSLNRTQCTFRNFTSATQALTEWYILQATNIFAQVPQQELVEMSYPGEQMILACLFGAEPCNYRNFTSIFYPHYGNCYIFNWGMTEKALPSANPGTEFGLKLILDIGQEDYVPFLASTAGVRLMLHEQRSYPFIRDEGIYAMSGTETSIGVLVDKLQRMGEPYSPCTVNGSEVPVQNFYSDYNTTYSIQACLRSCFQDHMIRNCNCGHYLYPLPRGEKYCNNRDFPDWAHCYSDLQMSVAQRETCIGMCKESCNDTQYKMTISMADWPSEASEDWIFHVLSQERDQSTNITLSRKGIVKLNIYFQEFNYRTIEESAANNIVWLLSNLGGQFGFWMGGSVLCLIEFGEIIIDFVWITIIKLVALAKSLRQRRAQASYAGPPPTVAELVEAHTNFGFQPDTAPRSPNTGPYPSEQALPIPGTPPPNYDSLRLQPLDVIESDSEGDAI", "T1 sequence (P51170 1-649 partner)": "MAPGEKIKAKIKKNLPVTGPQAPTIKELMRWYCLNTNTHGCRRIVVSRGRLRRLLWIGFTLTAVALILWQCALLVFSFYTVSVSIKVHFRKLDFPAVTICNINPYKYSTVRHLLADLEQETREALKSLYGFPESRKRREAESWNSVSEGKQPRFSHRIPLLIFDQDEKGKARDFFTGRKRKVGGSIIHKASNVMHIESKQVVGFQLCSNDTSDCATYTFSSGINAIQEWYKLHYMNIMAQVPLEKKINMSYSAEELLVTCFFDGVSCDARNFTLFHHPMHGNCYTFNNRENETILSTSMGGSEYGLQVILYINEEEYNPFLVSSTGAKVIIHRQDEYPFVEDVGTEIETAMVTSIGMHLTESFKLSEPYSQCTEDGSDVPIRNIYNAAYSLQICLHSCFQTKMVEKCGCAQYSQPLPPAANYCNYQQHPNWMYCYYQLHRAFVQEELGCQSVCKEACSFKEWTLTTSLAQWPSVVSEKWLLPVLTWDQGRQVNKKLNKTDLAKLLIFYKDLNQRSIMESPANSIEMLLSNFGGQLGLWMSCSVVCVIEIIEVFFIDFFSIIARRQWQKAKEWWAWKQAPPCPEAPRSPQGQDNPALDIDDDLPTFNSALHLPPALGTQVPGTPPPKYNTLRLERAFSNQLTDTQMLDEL", "assay": "Whole-cell patch clamp, WT αβγ-hENaC", "assay_type": "cell-based", "experimental": "Point mutations of α-, β-, γ- and δ-hENaC and PHA1B frameshift mutations of α-hENaC were prepared with the QuikChange Lightning Site-Directed Mutagenesis Kit (Agilent Technologies, CA, USA). Mutagenic primers were designed individually with the Primer Design Program provided on the producer’s website or for the frameshift mutations the same base changes as reported in patients (see Table 2) were performed. Primers were ordered from Sigma-Aldrich, Vienna, Austria.\n(§1) HEK-293 cells were transfected 1 day after cell seeding using X-tremeGENE HP DNA transfection reagent (Roche Diagnostics, Mannheim, Germany) according to the manufacturer’s protocol. A set of WT or mutant αβγ- or δβγ-hENaC, or α-, β-, γ-, or δ-hENaC alone was used, and the ratio of DNA to transfection reagent was 1:3. The expression was highest 48–72 h after transfection.\n(§2) Electrophysiological experiments were performed as described in detail by Shabbir et al. ([16]). […] Currents were recorded with the patch clamp method in the whole-cell mode. The chamber contained 1 ml of the bath solution of the following composition (in mM): 145 NaCl, 2.7 KCl, 1.8 CaCl2, 2 MgCl2, 5.5 glucose, and 10 HEPES, adjusted to pH 7.4 with 1 M NaOH solution. Micropipettes were pulled from thin-walled borosilicate glass capillaries (Harvard Apparatus, Holliston, MA, USA) with a DMZ Zeitz Puller to obtain electrode resistances ranging from 2 to 5 MΩ. The pipette solution contained (in millimolars): 135 potassium methane sulfonate, 10 KCl, 6 NaCl, 1 Mg2ATP, 2 Na3ATP, 10 HEPES, and 0.5 EGTA, adjusted to pH 7.2 with 1 M KOH solution. Chemicals for pipette and bathing solutions were supplied by Sigma-Aldrich (Vienna, Austria). Electrophysiological measurements were carried out with an Axopatch 200B patch clamp amplifier (Axon Instruments, CA, USA). Capacity transients were canceled, and series resistance was compensated. Whole-cell currents were filtered at 5 kHz and sampled at 10 kHz. Data acquisition and storage were processed directly to a PC equipped with pCLAMP 10.2 software (Axon Instruments, CA, USA). […]"}, "β-hENaC": {"biological_target": "T2, β-hENaC (Homo sapiens, UniProt P51168)", "T2 construct": "expressed in transfected cells; host or cells: HEK-293", "T2 sequence (P51168 1-640)": "T1 sequence (P51168 1-640 partner)", "assay": "Whole-cell patch clamp, β-hENaC alone", "assay_type": "cell-based", "settings": "TNF, mean ± S.E., n = 5", "experimental": "as §1\nas §2, with “USA).” for “USA). Capacity transients were canceled, and series resistance was compensated. Whole-cell currents were filtered at 5 kHz and sampled at 10 kHz. Data acquisition and storage were processed directly to a PC equipped with pCLAMP 10.2 software (Axon Instruments, CA, USA).”"}, "δ-hENaC": {"biological_target": "T3, δ-hENaC (Homo sapiens, UniProt P51172)", "T3 construct": "expressed in transfected cells; host or cells: HEK-293", "T3 sequence (P51172 1-638 isoform P51172-1)": "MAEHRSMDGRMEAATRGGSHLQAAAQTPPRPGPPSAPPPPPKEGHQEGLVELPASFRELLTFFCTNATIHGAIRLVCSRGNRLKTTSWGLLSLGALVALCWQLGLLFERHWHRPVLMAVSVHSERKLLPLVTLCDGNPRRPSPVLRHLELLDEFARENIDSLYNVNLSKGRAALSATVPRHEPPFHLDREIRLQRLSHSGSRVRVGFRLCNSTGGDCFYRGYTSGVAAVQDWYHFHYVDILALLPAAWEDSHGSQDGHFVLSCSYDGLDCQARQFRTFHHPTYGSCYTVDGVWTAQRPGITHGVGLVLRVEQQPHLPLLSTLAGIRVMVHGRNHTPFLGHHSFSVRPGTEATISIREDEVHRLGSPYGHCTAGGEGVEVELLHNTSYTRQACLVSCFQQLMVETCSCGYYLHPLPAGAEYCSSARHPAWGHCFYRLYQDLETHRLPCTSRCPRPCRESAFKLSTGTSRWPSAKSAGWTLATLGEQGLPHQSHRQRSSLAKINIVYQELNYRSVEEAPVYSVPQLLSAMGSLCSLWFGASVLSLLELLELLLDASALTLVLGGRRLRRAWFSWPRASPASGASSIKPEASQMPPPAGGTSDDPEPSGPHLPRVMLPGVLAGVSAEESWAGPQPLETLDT", "assay": "Whole-cell patch clamp, δ-hENaC alone", "assay_type": "cell-based", "settings": "TNF, mean ± S.E., n = 5, p < 0.001 vs solnatide", "experimental": "as §1\nas §2, with “USA).” for “USA). Capacity transients were canceled, and series resistance was compensated. Whole-cell currents were filtered at 5 kHz and sampled at 10 kHz. Data acquisition and storage were processed directly to a PC equipped with pCLAMP 10.2 software (Axon Instruments, CA, USA).”"}, "α-hENaC": {"biological_target": "T4, α-hENaC (Homo sapiens, UniProt P37088)", "T4 construct": "expressed in transfected cells; host or cells: HEK-293", "T4 sequence (P37088 1-669)": "T1 sequence (P37088 1-669)", "assay": "Whole-cell patch clamp, α-hENaC alone", "assay_type": "cell-based", "settings": "TNF, -100 mV, mean ± S.E., n = 5, p < 0.001 vs solnatide", "experimental": "as §1\nas §2, with “USA).” for “USA). Capacity transients were canceled, and series resistance was compensated. Whole-cell currents were filtered at 5 kHz and sampled at 10 kHz. Data acquisition and storage were processed directly to a PC equipped with pCLAMP 10.2 software (Axon Instruments, CA, USA).”"}, "αR448fsβγ-ENaC (human)": {"biological_target": "αR448fsβγ-ENaC (human) (UniProt P37088)"}, "[1]": {"biological_target": "α-hENaC expressed alone (human) (UniProt P37088)"}, "[2]": {"biological_target": "β-hENaC expressed alone (human) (UniProt P51168)"}, "[3]": {"biological_target": "wild-type αβγ-hENaC (amiloride-sensitive epithelial sodium channel) (human) (UniProt P37088)"}, "[4]": {"biological_target": "γ-hENaC expressed alone (human) (UniProt P51170)"}, "[5]": {"biological_target": "δ-hENaC expressed alone (human) (UniProt P51172)"}, "αN232Qβγ-ENaC (human)": {"biological_target": "αN232Qβγ-ENaC (human) (UniProt P37088)"}, "αN511Qβγ-ENaC (human)": {"biological_target": "αN511Qβγ-ENaC (human) (UniProt P37088)"}}, "data": [{"compound": "TNF: Tumor necrosis factor (CAS Registry Number 94948-59-1, Sigma-Aldrich, Austria)", "values": [{"measurement": "EC50", "setting": "αβγ-hENaC; TNF, amiloride-sensitive Na^+ current, αβγ-hENaC in HEK-293, whole-cell, -100 mV, 19–22°C, bath pH 7.4, cumulative addition, mean ± S.E., n = 5, p < 0.001 vs solnatide", "result": "6.7 ± 2.1", "unit": "nM"}, {"measurement": "EC50", "setting": "β-hENaC", "result": "18.8 ± 2.9", "unit": "nM"}, {"measurement": "EC50", "setting": "δ-hENaC", "result": "5 ± 0.3", "unit": "nM"}, {"measurement": "EC50", "setting": "α-hENaC", "result": "4.2 ± 1.9", "unit": "nM"}]}, {"compound": "N=C(N)NC(=O)c1nc(Cl)c(N)nc1N", "note": "[amiloride, reference compound]", "values": [{"measurement": "Block of induced current by amiloride", "setting": "αβγ-hENaC; 10 µM amiloride, TNF- or solnatide-induced current", "result": "blocked by 10 µM amiloride within a few pulses"}]}, {"compound": "Tumor necrosis factor (TNF) (ligand)", "values": [{"measurement": "fold increase of current (TNF-induced/amiloride-sensitive current), whole-cell patch clamp, transfected HEK-293 cells", "setting": "αR448fsβγ-ENaC (human)", "result": 3.5, "unit": "fold"}, {"measurement": "EC50 of TNF for activating amiloride-sensitive Na+ current, whole-cell patch clamp at -100 mV, transfected HEK-293 cells", "setting": "[1]", "result": 4.2, "unit": "nM"}, {"measurement": "maximal TNF-induced amiloride-sensitive Na+ current, whole-cell patch clamp at -100 mV, transfected HEK-293 cells", "setting": "[1]", "result": 48.1, "unit": "pA"}, {"measurement": "EC50 of TNF for activating amiloride-sensitive Na+ current, whole-cell patch clamp at -100 mV, transfected HEK-293 cells", "setting": "[2]", "result": 18.8, "unit": "nM"}, {"measurement": "maximal TNF-induced amiloride-sensitive Na+ current, whole-cell patch clamp at -100 mV, transfected HEK-293 cells", "setting": "[2]", "result": 18.5, "unit": "pA"}, {"measurement": "EC50 of TNF for activating amiloride-sensitive Na+ current, whole-cell patch clamp at -100 mV, transfected HEK-293 cells", "setting": "[3]", "result": 6.7, "unit": "nM"}, {"measurement": "maximal TNF-induced amiloride-sensitive Na+ current, whole-cell patch clamp at -100 mV, transfected HEK-293 cells", "setting": "[3]", "result": 162, "unit": "pA"}, {"measurement": "maximal TNF-induced amiloride-sensitive Na+ current, whole-cell patch clamp at -100 mV, transfected HEK-293 cells", "setting": "[4]", "result": 8, "unit": "pA"}, {"measurement": "EC50 of TNF for activating amiloride-sensitive Na+ current, whole-cell patch clamp at -100 mV, transfected HEK-293 cells", "setting": "[5]", "result": 5, "unit": "nM"}, {"measurement": "maximal TNF-induced amiloride-sensitive Na+ current, whole-cell patch clamp at -100 mV, transfected HEK-293 cells", "setting": "[5]", "result": 27.8, "unit": "pA"}, {"measurement": "maximal TNF-induced current, whole-cell patch clamp, transfected HEK-293 cells", "setting": "αN232Qβγ-ENaC (human)", "result": 84.7, "unit": "pA"}, {"measurement": "maximal TNF-induced current, whole-cell patch clamp, transfected HEK-293 cells", "setting": "αN511Qβγ-ENaC (human)", "result": 50.7, "unit": "pA"}]}]}
